Patent publication US7067277B1, “Chimeric G proteins and uses thereof” (H. Lundbeck A/S, priority 1999, dated 2006)
Numbering of substitutions follows the chain as printed.

Key:
Type in all cases: cell-based
[1] = test system: panel of 36 different GPCRs, including Gαi/i-, Gαs-, and Gαq-coupling receptors; experiment: Detection rate in COS-7 calcium mobilization over a GPCR panel; conditions: COS-7, single chimera co-transfected with each GPCR
Method: (§1) COS-7 cells were cultured in 225 cm^2 flasks in Dulbecco's Modified Eagle Medium (DMEM) with supplements (10% bovine calf serum, 4 mM glutamine, 100 units/ml penicillin and 100 μg/ml streptomycin) at 37° C., 5% CO2. Stock plates of COS-7 cells were trypsinized and split 1:6 every 3–4 days.
GPCR and chimeric G protein cDNAs were transiently transfected into COS-7 cells in 150 cm^2 flasks by the DEAE-dextran method (Cullen, 1987), using a total of 20 μg of DNA/˜7×10^6 cells. For evaluating the function of a single chimeric G protein, the standard cDNA transfection ratio was 1:1 (10 μg GPCR cDNA and 10 μg chimeric G protein cDNA). […]
Twenty four hours after transient transfection, COS-7 cells were seeded into 96-well black wall microtiter plates coated with poly-D-lysine for assay the following day. […] Basal fluorescence was monitored in a fluorometric imaging plate reader (FLIPR™, Molecular Devices) with an excitation wavelength of 488 nm and an emission range of 500 to 560 nm. Laser excitation energy was adjusted so that basal fluorescence readings were approximately 10,000 relative fluorescent units. Cells were stimulated with agonists diluted in assay buffer (50 μl), and relative fluorescent units were measured at defined intervals (exposure=0.4 sec) over a 3 min period at room temperature. Maximum change in fluorescence was calculated for each well. […]

[2] = target: T1, h D1 (Homo sapiens, UniProt P21728); experiment: Calcium mobilization (FLIPR, Fluo-3) in transfected COS-7 cells
T1 construct: expressed in transfected cells; host or cells: COS-7
T1 sequence (P21728 whole entry): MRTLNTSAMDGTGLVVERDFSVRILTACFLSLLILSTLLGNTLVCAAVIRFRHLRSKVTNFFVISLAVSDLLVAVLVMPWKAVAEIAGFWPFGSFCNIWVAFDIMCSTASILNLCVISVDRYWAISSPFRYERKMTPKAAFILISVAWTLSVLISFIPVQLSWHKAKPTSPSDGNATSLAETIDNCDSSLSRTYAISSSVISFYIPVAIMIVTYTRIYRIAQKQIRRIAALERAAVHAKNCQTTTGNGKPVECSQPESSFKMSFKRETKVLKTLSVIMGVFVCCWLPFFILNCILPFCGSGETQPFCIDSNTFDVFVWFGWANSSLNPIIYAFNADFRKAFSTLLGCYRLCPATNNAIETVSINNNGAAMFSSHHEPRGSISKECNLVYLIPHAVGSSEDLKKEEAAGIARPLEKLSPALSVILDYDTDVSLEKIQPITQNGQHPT
Method: as §1
For evaluating the function of a single chimeric G protein, the standard cDNA transfection ratio was 1:1 (10 μg GPCR cDNA and 10 μg chimeric G protein cDNA). For evaluating the function of a mixture of chimeric G proteins, the standard cDNA transfection ratio was 8:1:1 (16 μg GPCR cDNA, 2 μg Gαq/z cDNA, 2 μg Gαq/s cDNA).
Twenty four hours after transient transfection, COS-7 cells were seeded into 96-well black wall microtiter plates coated with poly-D-lysine for assay the following day. […] After excess dye was discarded, cells were washed in assay buffer and layered with a final volume equal to 100 μl/well. Basal fluorescence was monitored in a fluorometric imaging plate reader (FLIPR™, Molecular Devices) with an excitation wavelength of 488 nm and an emission range of 500 to 560 nm. Laser excitation energy was adjusted so that basal fluorescence readings were approximately 10,000 relative fluorescent units. Cells were stimulated with agonists diluted in assay buffer (50 μl), and relative fluorescent units were measured at defined intervals (exposure=0.4 sec) over a 3 min period at room temperature. Maximum change in fluorescence was calculated for each well. Concentration-response curves derived from the maximum change in fluorescence were analyzed by nonlinear regression (Hill equation).

[3] = target: T2, Rat Y1 (Rattus norvegicus, UniProt P21555); experiment: Cl- current recording in Xenopus oocytes expressing GPCR and chimeric G protein; conditions: Xenopus oocytes expressing Rat Y1 and chimera; mean ± s.e.m
T2 construct: linearized plasmids or PCR products containing the complete coding region of the genes; expressed in transfected cells; host or cells: Xenopus laevis oocytes (receptor cRNA injected)
T2 sequence (P21555 1-382): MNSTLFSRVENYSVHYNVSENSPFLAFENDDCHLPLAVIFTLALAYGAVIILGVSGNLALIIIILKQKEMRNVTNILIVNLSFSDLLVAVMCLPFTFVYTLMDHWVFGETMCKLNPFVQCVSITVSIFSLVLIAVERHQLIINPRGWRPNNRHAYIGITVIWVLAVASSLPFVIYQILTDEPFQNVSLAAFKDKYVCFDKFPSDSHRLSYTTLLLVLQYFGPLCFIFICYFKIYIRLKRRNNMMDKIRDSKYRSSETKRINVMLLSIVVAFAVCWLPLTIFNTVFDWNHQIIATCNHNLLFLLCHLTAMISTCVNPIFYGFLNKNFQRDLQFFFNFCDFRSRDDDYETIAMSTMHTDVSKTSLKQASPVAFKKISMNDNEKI
Method: (§2) Oocytes were harvested from Xenopus laevis and injected with mRNA transcripts as previously described (Quick and Lester, 1994; Smith et al., 1997). Receptor and chimeric G protein α subunit RNA transcripts were synthesized using the T7 polymerase (“Message Machine,” Ambion) from linearized plasmids or PCR products containing the complete coding region of the genes. Oocytes were injected with 5–25 ng synthetic receptor RNA and incubated for 3–8 days at 17 degrees. Three to eight hours prior to recording, oocytes were injected with 500 pg chimeric Gα subunit mRNA. Dual electrode voltage clamp (Axon Instruments Inc.) was performed using 3 M KCl-filled glass microelectrodes having resistances of 1–2 MOhm. Unless otherwise specified, oocytes were voltage clamped at a holding potential of −80 mV. During recordings, oocytes were bathed in continuously flowing (1–3 ml/min) medium containing 96 mM NaCl, 2 mM KCl, 1.8 mM CaCl2, 1 mM MgCl2, and 5 mM HEPES, pH 7.5 (ND96). Drugs were applied by local perfusion from a 10 μl glass capillary tube fixed at a distance of 0.5 mm from the oocyte. Experiments were carried out at room temperature. All values are expressed as mean±standard error of the mean.

[4] = target: T3, Human NPFF1 (Homo sapiens, UniProt Q9GZQ6); experiment: as above; conditions: Xenopus oocytes expressing Human NPFF1 and chimera, 1 μM NPFF, mean ± s.e.m
T3 construct: linearized plasmids or PCR products containing the complete coding region of the genes; expressed in transfected cells; host or cells: Xenopus laevis oocytes (receptor cRNA injected)
T3 sequence (Q9GZQ6 whole entry): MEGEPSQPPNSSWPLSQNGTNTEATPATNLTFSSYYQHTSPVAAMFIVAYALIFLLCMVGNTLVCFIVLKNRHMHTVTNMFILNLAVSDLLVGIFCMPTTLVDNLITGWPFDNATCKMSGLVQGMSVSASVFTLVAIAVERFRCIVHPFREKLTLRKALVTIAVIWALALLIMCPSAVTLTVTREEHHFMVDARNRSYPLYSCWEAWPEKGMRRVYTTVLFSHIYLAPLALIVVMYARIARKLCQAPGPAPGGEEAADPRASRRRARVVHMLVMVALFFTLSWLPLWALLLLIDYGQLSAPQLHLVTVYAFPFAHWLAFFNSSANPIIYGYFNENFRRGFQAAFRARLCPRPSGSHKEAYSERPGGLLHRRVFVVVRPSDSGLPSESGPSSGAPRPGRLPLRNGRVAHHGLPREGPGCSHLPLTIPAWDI
Method: as §2

[5] = target: T4, Rabbit 5HT1D (Oryctolagus cuniculus, UniProt P49145); experiment: as above; conditions: Xenopus oocytes expressing Rabbit 5HT1D and chimera; mean ± s.e.m
T4 construct: linearized plasmids or PCR products containing the complete coding region of the genes; expressed in transfected cells; host or cells: Xenopus laevis oocytes (receptor cRNA injected)
T4 sequence (P49145 whole entry): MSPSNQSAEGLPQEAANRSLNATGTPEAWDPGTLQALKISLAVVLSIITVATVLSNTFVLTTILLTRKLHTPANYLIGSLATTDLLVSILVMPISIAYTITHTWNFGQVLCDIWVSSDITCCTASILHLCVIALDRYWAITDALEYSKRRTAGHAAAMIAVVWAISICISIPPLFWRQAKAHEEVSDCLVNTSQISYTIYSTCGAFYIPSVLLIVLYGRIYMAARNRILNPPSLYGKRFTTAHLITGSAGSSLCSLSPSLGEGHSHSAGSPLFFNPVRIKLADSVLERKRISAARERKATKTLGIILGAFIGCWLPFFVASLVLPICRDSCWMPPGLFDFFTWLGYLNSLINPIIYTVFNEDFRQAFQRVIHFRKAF
Method: as §2

[6] = target: m 5HT5B (Mus musculus, UniProt P31387); experiment: Calcium mobilization (FLIPR, Fluo-3) in transfected COS-7 cells; conditions: m 5HT5B + chimera in COS-7; agonist 5HT, max 100 μM
Sequence of m 5HT5B (P31387 whole entry): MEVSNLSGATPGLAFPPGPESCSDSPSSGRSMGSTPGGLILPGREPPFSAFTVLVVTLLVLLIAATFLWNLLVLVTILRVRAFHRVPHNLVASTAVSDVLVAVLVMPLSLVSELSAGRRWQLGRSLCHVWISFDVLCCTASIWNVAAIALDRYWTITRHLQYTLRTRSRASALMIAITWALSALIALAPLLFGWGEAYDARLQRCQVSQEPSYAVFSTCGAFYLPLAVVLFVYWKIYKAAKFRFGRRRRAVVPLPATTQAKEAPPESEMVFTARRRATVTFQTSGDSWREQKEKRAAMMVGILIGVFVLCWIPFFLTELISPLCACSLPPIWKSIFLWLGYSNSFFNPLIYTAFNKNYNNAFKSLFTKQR
Method: as §1
GPCR and chimeric G protein cDNAs were transiently transfected into COS-7 cells in 150 cm^2 flasks by the DEAE-dextran method (Cullen, 1987), using a total of 20 μg of DNA/˜7×10^6 cells. For evaluating the function of a single chimeric G protein, the standard cDNA transfection ratio was 1:1 (10 μg GPCR cDNA and 10 μg chimeric G protein cDNA). For evaluating the function of a mixture of chimeric G proteins, the standard cDNA transfection ratio was 8:1:1 (16 μg GPCR cDNA, 2 μg Gαq/z cDNA, 2 μg Gαq/s cDNA).
Twenty four hours after transient transfection, COS-7 cells were seeded into 96-well black wall microtiter plates coated with poly-D-lysine for assay the following day. Just prior to assay, culture medium was aspirated and cells were dye-loaded with 4 μM Fluo-3/0.01% pluronic acid in assay buffer composed of Hank's Balanced Salt Solution (138 mM NaCl, 5 mM KCl, 1.3 mM CaCl2, 0.5 mM MgCl2, 0.4 mM MgSO4, 0.3 mM KH2PO4, 0.3 mM Na2HPO4, 5.6 mM glucose) plus 20 mM HEPES (pH 7.4), 0.1% BSA and 2.5 mM probenicid (100 μl/well) for 1 hour in 5% CO2 at 37° C. After excess dye was discarded, cells were washed in assay buffer and layered with a final volume equal to 100 μl/well. Basal fluorescence was monitored in a fluorometric imaging plate reader (FLIPR™, Molecular Devices) with an excitation wavelength of 488 nm and an emission range of 500 to 560 nm. Laser excitation energy was adjusted so that basal fluorescence readings were approximately 10,000 relative fluorescent units. Cells were stimulated with agonists diluted in assay buffer (50 μl), and relative fluorescent units were measured at defined intervals (exposure=0.4 sec) over a 3 min period at room temperature. Maximum change in fluorescence was calculated for each well. Concentration-response curves derived from the maximum change in fluorescence were analyzed by nonlinear regression (Hill equation).

B1: cGαq/z5: chimeric Gα subunit: C-terminal final 5 amino acids of C. elegans Gαq replaced with those of hGαz (SEQ ID NO: 1) (protein)
chain: MACCLSEEAREQKRINQEIEKQLQRDKRNARRELKLLLLGTGESGKSTFIKQMRIIHGQGYSEEDKRAHIRLVYQNVFMAIQSMIRAMDTLDIKFGNESEELQEKAAVVREVDFESVTSFEEPYVSYIKELWEDSGIQECYDRRREYQLTDSAKYYLSDLRRLAVPDYLPTEQDILRVRVPTTGIIEYPFDLEQIIFRMVDVGGQRSERRKWIHCFENVTSIMFLVALSEYDQVLVECDNENRMEESKALFRTIITYPWFTNSSVILFLNKKDLLEEKILYSHLADYFPEYDGPPRDPIAAREFILKMFVDLNPDADKIIYSHFTCATDTENIRFVFAAVKDTILQHNLKYIGLC
modifications: C. elegans
receptors generating positive signals (>500 fluorescence units) / receptors tested [1]: 28/36
maximal signal ([2]; human D1 receptor in COS-7, dopamine 0.3 nM to 100 μM concentration-response curve, example shown, FIG. 4B): 14,723 fluorescence units
MAXIMAL SIGNAL (FLUORESCENCE UNITS) ([2]; human D1 receptors in COS-7, 10 μg chimera cDNA and 10 μg receptor cDNA, 100 μM dopamine, Table 9 parallel comparison, mean of two experiments): 4832 fluorescence units
Response amplitudes (nA) in oocytes [3]: 1549 ± 168 nA
Response amplitudes (nA) in oocytes [4]: 1258±159 nA
Response amplitudes (nA) in oocytes ([4]; listed as CGαq/z5): 1258 ± 159 nA
Response amplitudes (nA) in oocytes [5]: 150 ± 105 nA
MAXIMAL SIGNAL (FLUORESCENCE UNITS) [6]: 265 fluorescence units

B2: cGαq/z9: C. elegans Gαq with Gαz portion of the C-terminal tail extended to 9 amino acids (SEQ ID NO: 2) (protein)
chain: B1 chain with H347N
modifications: C. elegans
receptors generating positive signals (>500 fluorescence units) / receptors tested [1]: 29/36
MAXIMAL SIGNAL (FLUORESCENCE UNITS) ([2]; h D1 + chimera in COS-7, agonist DA, max 100 μM): 13099 fluorescence units
Response amplitudes (nA) in oocytes [3]: 300 ± 177 nA
Response amplitudes (nA) in oocytes [4]: 1449 ± 398 nA
Response amplitudes (nA) in oocytes [5]: 34 ± 12 nA
MAXIMAL SIGNAL (FLUORESCENCE UNITS) [6]: 443 fluorescence units
